Experimental data published in patent US20240229003A1.

Molecular target: LGR6 (UniProt Q9HBX8)
Test: cell-based or functional assay

Chain of UniProt Q9HBX8 (Q9HBX8 25-967): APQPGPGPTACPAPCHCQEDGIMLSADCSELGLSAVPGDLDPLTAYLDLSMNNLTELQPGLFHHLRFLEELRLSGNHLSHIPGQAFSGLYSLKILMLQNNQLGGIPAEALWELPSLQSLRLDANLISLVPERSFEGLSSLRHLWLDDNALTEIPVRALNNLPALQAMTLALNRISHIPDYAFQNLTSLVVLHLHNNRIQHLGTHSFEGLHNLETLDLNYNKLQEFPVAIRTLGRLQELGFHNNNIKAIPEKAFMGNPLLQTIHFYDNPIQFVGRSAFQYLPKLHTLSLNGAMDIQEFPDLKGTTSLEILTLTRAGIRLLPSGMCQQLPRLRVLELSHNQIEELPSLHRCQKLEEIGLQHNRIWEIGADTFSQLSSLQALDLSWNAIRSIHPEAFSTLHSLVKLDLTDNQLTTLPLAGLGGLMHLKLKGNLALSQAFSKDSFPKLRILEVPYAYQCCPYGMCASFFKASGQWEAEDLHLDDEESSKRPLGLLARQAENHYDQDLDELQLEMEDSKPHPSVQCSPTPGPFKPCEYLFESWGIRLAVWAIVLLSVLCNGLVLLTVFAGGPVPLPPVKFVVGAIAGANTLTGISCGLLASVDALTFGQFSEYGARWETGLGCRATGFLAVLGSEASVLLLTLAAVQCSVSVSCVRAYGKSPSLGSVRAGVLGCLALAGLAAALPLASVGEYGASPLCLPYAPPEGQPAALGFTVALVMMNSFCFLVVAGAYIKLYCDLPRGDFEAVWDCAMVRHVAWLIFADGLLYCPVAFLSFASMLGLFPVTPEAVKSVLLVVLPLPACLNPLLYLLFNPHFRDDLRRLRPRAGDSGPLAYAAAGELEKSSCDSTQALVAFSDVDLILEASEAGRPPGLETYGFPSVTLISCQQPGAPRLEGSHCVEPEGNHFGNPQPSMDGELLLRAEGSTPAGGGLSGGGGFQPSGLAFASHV

MBP-RSPO1-MMAE (from UniProt Q2MKA7 21-145)
IC50 of cell killing on LGR6-overexpressing HEK-LGR6-2 cells (10 days exposure, CCK-8 viability): 0.08 nM
fold potency of killing, HEK-LGR6-2 cells against empty vector-transfected HEK-pcDNA cells: 12 fold
